Sequences and labels used below:
B1: TIP (Thermococcales inhibitor of PCNA), full length (natural protein, T. kodakarensis, UniProt Q5JH72 1-64, looked up)
chain: MDRKLDEFIGDATPKKVSKEKPVRRKKRLKPTSLDSFLPEEHINYFRDLRIGSKKIRNAKIEEL
B2: PCNA:TIP peptide complex (1:1) (complex)
chain: MPFEVVFDGAKEFADLIATASNLIDEAAFKFTEEGISMRAMDPSRVVLIDLNLPESIFSKYEVEEPETIGINMDQFKKILKRGKAKDTLILRKGDENFLEITFEGTAKRTFRLPLIDVEELELELPELPFTAKVVLLGEVLKEGIKDASLVSDAIKFIAKENEFTMKAEGETNEVEIRLTLEDEGLLDLEVEEETKSAYGIRYLSDMVKGIGKADEVILRFGNEMPLQMEYMIRDEGRLTFLLAPRVEE
peptide: RLKPTSLDSFLPEEHINYFRDLRIGSKKIRNAKIEEL
B3: Proliferating cell nuclear antigen (PCNA1) of Thermococcus kodakarensis (natural protein)
chain: B2 chain

The target of data set [1] is B3. Put plainly: crystal structure; PCNA with full length TIP, ratio about 1:1.2, hanging drop; well 1.2 M ammonium sulfate, 50 mM sodium citrate pH 4.0, 10% glycerol; 2.8 Å. The conditions noted are these: both partners purified.
Data set [2] concerns the molecule itself. Put plainly: SAXS; PCNA:TIP peptide complex at 6.4, 4.8, 4.1 and 2.1 mg/ml, purified by SEC, 50 mM Tris-HCl pH 7.3, 200 mM NaCl, room temperature; fit to a two-member ensemble (1:1 Model A and 2:2 Model C); 2:2 form to 1:1 complexes. On the technique in general: In gel filtration, larger molecules generally elute earlier.
Data set [3] addresses B3. The data set can be described thus: crystal structure; PCNA with TIP peptide (residues 28-64); same space group as PCNA:TIP; 3.4 Å. Particulars: both partners purified.
Data set [4] deals with the molecule itself. The data set can be described thus: SAXS; free PCNA in 50 mM Tris-HCl pH 7.3, 200 mM NaCl, room temperature; fit to the crystal structure PDB 3LX1.
For data set [5], the target named is B3. The data set can be described thus: crystal structure; PCNA with FEN-1 peptide, ratio about 1:5, sitting drop; well 2.8 M ammonium sulfate, 100 mM citric acid pH 5.3, 10% PEG 4000; 2.0 Å. Particulars: both partners purified.

For the molecule B1, the binding result in data set [1] was “binds”.
On to B2, for which, in data set [2], the Kd – broadly, the concentration at which binding is half-saturated – was around 100 µM and the stoichiometry N (usually the number of molecules, sites or subunits per partner or assembly) came out at 2.
RLKPTSLDSFLPEEHINYFRDLRIGSKKIRNAKIEEL (peptide, UniProt Q5JH72 28-64, looked up) [TIP peptide (residues 28-64)]: the binding result in data set [3] is recorded as “binds”.
As for B3, the “stoichiometry N” value in data set [4] is 3.
For the molecule KQRTLESWFGR (peptide, UniProt Q5JGN0 330-340, looked up) [flap endonuclease 1 (FEN-1) peptide (residues 330-340)], the binding result in data set [5] is on record as “binds”.

For the origin of these results see publication PMC5181682 (Nucleic Acids Research, 2016).
